Results taken from patent publication US20120141504A1 (MAYO FOUNDATION FOR MEDICAL EDUCATION AND RESEARCH, published 2012).

Molecular target: T1, human B7-H3.1 expressed on 293 cells transfected with pcDNA/B7-H3 (human, UniProt Q5ZPR3 29-534)
T1 sequence: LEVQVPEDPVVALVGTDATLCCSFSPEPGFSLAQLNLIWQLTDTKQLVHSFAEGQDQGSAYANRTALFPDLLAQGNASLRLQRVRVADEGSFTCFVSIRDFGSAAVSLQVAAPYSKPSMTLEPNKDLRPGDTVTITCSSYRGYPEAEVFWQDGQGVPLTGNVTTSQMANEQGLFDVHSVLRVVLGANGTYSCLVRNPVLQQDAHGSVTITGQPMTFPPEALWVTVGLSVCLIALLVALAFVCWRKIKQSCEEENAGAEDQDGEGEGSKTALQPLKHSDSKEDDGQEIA
Experiment: flow cytometry on transfected 293 cells
Description: After a 45 min incubation, cells were washed and cultured for 45 min with fluorescein isothiocyanate (FITC)-conjugated goat anti-mouse Ig F(ab′)₂ (BioSource, Camarillo, Calif.). For two color staining, cells were washed and further incubated with phycoerythrin (PE)-conjugated mAb specific for CD3, CD14, or CD19 (PharMingen, San Diego, Calif.). For the analysis of CD3+, CD19+, and CD 14+ cells, peripheral blood mononuclear cells (PBMC) (untreated or activated as described below) were stained with anti-B3-H7 antiserum (green fluorescence) and either anti-CD3, anti-CD19, or anti-CD14 monoclonal antibody (mAb) (orange fluorescence). The proportion of B7-H3 expressing cells (green fluorescence) within the CD3+, the CD19+, and the CD 14+ populations was assessed by gating the flow cytometer on the relevant populations (orange fluorescence). Expression of a B7-H3 counter-receptor was analyzed by incubation of cells with B7-H3Ig (5 μg/sample) with subsequent staining using FITC-conjugated goat anti-mouse Ig F(ab′)₂. Single or double stained cells were analyzed using the Becton Dickinson FACScan (Mountain View, Calif.).

binding result: no binding (tested: 5 µg/sample)
B1: ICOSIg fusion protein (Fc fusion, UniProt Q9Y6W8 21-140, looked up)
chain: EINGSANYEMFIFHNGGVQILCKYPDIVQQFKMQLLKGGQILCDLTKTKGSGNTVSIKSLKFCHSQLSNNSVSFFLYNLDHSHANYYFCNLSIFDPPPFKVTLTGGYLHIYESQLCCQLK
notes: extracellular domain; Described as an analogous fusion protein prepared by a method similar to that for B7-H3Ig (extracellular domain fused to mouse IgG2a Fc); not shown: Fc constant region of mouse IgG2a
